Consider 1 molecule from US7521540B2, “CYR61 compositions and methods” (Munin Corporation, priority 1996, dated 2009).

One assay concerns Limb mesenchymal cells. The assay is described as follows: Chondrogenesis, [35S]-sulfate incorporation in micromass cultures. In kind it is cell-based, mouse. How it is done: Cell proliferation was assessed by the thymidine assay, described above, and by microscopic cell counts. Chondrogenesis was assessed by quantifying the incorporation of [^35S]-sulfate (ICN Biomedicals, Inc.) into sulfated glycosaminoglycans, and by qualitatively determnining the extent of chondrogenesis by cell staining with Alcian Blue. Cultures, described above, were labeled with 2.5 μCi/ml [^35S]-sulfate for 18 hours, washed twice in PBS, fixed with Kahle's fixative (Pepper et al., J. Cell Sci. 109:73-83 [1995]) and stained for 18 hours in 0.5% Alcian Blue, pH 1.0. The extent of chondrogenesis is correlated with the intensity of Alcian Blue staining. San Antonio et at., Dev. Biol. 115:313-324 (1986).
Chondrogenic differentiation was quantitated by incorporation of […] (ICN) into sulfated glycosaminoglycans and assessed qualitatively by Alcian Blue staining. Cultures were radiolabeled with 2.5 μCi/ml [^35S]-sulfate for 18 hr, fixed with Kahle's fixative and stained with 0.5% Alcian Blue, pH 1.0 (Lev et al., 1964). The extent of chondrogenesis is correlated with the intensity of Alcian Blue staining (San Antonio et al., 1986). [^35S]-Sulfate incorporation in the fixed cell layer was quanititated by liquid scintillation counting.
As shown above in Example 11, anti-Cyr61 antibodies can neutlralize both the cell adhesion and DNA-synthesis enhancement activities of Cyr61. Anti-Cyr61 antibodies were added to the mesenchymal cell culture media or mixed the cell suspension prior to plating. […] These observations were correlated with decreased Alcian Blue staining.

Assay [1] concerns Human Microvascular Endothelial Cells. As to the kind of experiment: Endothelial cell migration, inverted modified Boyden chamber. In kind it is cell-based. How it is done:
In an alternative in vitro assay for angiogenic activity, an assay for endothelial cell migration was developed. […] Primary Human Microvascular Endothelial Cells (HMVEC PO51, Clonetics, San Diego, Calif.) were maintained in DME with 10% donor calf serum (Flow Laboratories, McLean, Va.) and 100 μg/ml endothelial celi mitogen (Biomedical Technologies Inc., Stoughton, Mass.). The cells were used between passages 10 and 15. To measure migration, cells were starved for 24 hours in DME containing 0.1% BSA, harvested, resuspended in DME with 0.1% BSA, and plated at 1.75×10^4 cells/well on the lower surface of a gelatinized 0.5 μm filter (Nucleopore Corporation, Pleasanton. Calif.) in an inverted modified Boyden chamber. After 1-2 hours at 37° C., during which time the cells were allowed to adhere to the filter, the chamber was reverted to its normal position. To the top well of separate chambers, basic Fibroblast Growth Factor (a positive control), Cyr61, or a negative control solution (conditioned medium known to lack chemoattractants or DME plus BSA, see below) was added at concentrations ranging from 10 ng/ml to 10 μg/ml. Chambers were then incubated for 3-4 hours at 37° C. to allow migration. Chambers were disassembled, membranes fixed and stained, and the number of cells that had migrated to the top of the filter in 3 high-powered fields was determined. Tolsma et al., J. Cell. Biol. 122:497-511 (1993) (incorporated by reference), and references cited therein. DME with 0.1% BSA was used as a negative control and either bFGF (10 ng/ml) or conditioned media from angiogenic hamster cell lines (20 μg/ml total protein) were used as positive controls. Rastinejad et al., Cell 56:345-355 (1989). Each sample was tested in quadruplicate (test compound such as Cyr61, positive control, conditioned medium as a negative control, and DME plus BSA as a negative control) in a single experiment; experiments were repeated at least twice.
To allow comparison of experiments performed on different days, migration data is reported as the percent of maximum migration towards the positive control, calculated after subtraction of background migration observed in the presence of DME plus BSA. […] Very high concentrations of thrombospondin (TSP) caused endothelial cells to detach from the membrane. Detachment was detected by counting cells on the lower face of the membrane. When cell loss exceeded 10%, the number of migrated cells was corrected for this loss. […] At 10 ng/ml, Cyr61 induced an average of 64 cells to migrate per three high-powered fields examined.

Assay [2] shares this test system. The assay is described as follows: In vitro migration assay for angiogenesis inhibitors. In kind it is cell-based. Conditions: bFGF 10 ng/ml; Cyr61; IGF-II. The procedure: As in the preceding Example, human microvascular endothelial cells (Clonetics) were used. In one series of assays, several carbohydrates and carbohydrate derivatives were analyzed. These compounds included 10 mM mannose, 10 mM mannose-6-phosphate, and 10 mM galactose. […] Cyr61 plus galactose induced the migration of approximately 74 cells per set of three high-powered fields. […] The angiogenic activity of basic FGF (10 ng/ml) was also tested, as described above, with and without mannose-6-phosphate. In the presence of 10 mM mannose-6-phosphate, bFGF induced 51 cells per set of three high-powered fields to migrate; in its absence, bFGF induced the migration of approximately 52 cells. […] The effect of mannose-6-phosphate on IGF II activity was anticipated because mannose-6-phosphate is known to compete with IGF II for their common receptor (the IGF II receptor). […] Moreover, because there is an essentially perfect correlation between the in vitro migration assay and the in vivo angiogenesis assay, described below, mannose-6-phosphate has been identified as an inhibitor of angiogenesis based on the results of the assay disclosed herein. Accordingly, the invention contemplates a method of inhibiting angiogenesis comprising the step of administering an inhibitor the angiogenic activity of Cyr61 such as mannose-6-phosphate. […]

B1: Cyr61: Cysteine-rich ECM signaling protein; murine sequence SEQ ID NO:2, recombinant from Baculovirus-infected Sf9 cells (protein, listed as Mus musculus)
chain: MSSSTFRTLAVAVTLLHLTRLALSTCPAACHCPLEAPKCAPGVGLVRDGCGCCKVCAKQLNEDCSKTQPCDHTKGLECNFGASSTALKGICRAQSEGRPCEYNSRIYQNGESFQPNCKHQCTCIDGAVGCIPLCPQELSLPNLGCPNPRLVKVSGQCCEEWVCDEDSIKDSLDDQDDLLGLDASEVELTRNNELIAIGKGSSLKRLPVFGTEPRVLFNPLHAHGQKCIVQTTSWSQCSKSCGTGISTRVTNDNPECRLVKETRICEVRPCGQPVYSSLKKGKKCSKTKKSPEPVRFTYAGCSSVKKYRPKYCGSCVDGRCCTPLQTRTVKMRFRCEDGEMFSKNVMMIQSCKCNYNCPHPNEASFRLYSLFNDIHKFRD
In the case of B1, the “increase in [35S]-sulfate incorporation” value in the assay on Limb mesenchymal cells (0.3 μg/ml) worked out at 1.5 fold; in the assay with Limb mesenchymal cells (5 μg/ml (120 nM)), 3.5 fold. Further, the “cartilage formation” value in the assay with Limb mesenchymal cells (10 μg/ml) was “formed a more massive mound of cartilage”. Besides, the “increase in normalized sulfate incorporation over control” value in the assay with Limb mesenchymal cells (sulfate/cell number ratio) was “approximately 2 fold”. In addition, the “migrated cells per three high-powered fields” value in assay [1] (10 ng/ml) was 64 cells; in assay [1] (100 ng/ml), “approximately 72 cells”; in assay [1] (1 μg/ml), 87 cells; in assay [1] (10 μg/ml) it was “approximately 57 cells”; in assay [1] (approximately 7 μg/ml), “about 61 cells”. The “migrating cells, chemoattractant without mannose-6-phosphate” value in assay [2] is given as “approximately 48 cells”.
